From the supplement of paper PMC9170038

Test system: MS2 coat protein
Assay: apparent KD of MS2 coat protein; higher = weaker reporter binding
Conditions: Eterna round: R107
How it was run: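 Titrations with SNAP-549-labelled MS2 coat protein ran in twofold steps from 0.7 or 1.5 nM to 3 µM, each step taking 0.8–1.5 h at the start and 10–20 min toward the end. The targets were designed RNA switches transcribed on-chip from Illumina sequencing clusters, held in 100 mM Tris-HCl pH 7.5, 80 mM KCl, 4 mM MgCl2, without or with constant ligand. Apparent KD was taken per design as the median of normalised cluster binding-curve fits.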

[1] = input ligand: theophylline 20 uM
[2] = input ligand: tryptophan 2.4 mM
[3] = input ligand: theophylline 2 mM

Sequence	apparent KD of MS2 coat protein (input ligand: arginine 13.2 mM) [nM]	apparent KD of MS2 coat protein [1] [nM]	apparent KD of MS2 coat protein [2] [nM]	apparent KD of MS2 coat protein (input ligand: none) [nM]	apparent KD of MS2 coat protein [3] [nM]
AUGAAGCUAAGAGAUACCAGUGACCACAGAUACAUGAGGAUCACCCAUGUCUCAAAUUGUCACCCUUGGCAGCUCACUAUCGAAG [theeternabot_sameState_MS2_Theo_B_29]	11.2	11.9	10.2		
AUGUAGAACCGAAGGAGCGCGAUGACAUGAGGAUCACCCAUGUAUUUGUGGUGGCUUCGAUCGCAGGUAGGUCGCGGAAGUAGUA [#04 Exclusion - Arginine B]	96.6	162	211	128	346
UGUAUGUGAUCUGAUACCAGAGUUGAUAACCUGAGGAUCACCCUGGUAAGGCGAAAGCCACUCCCUUGGCAGCAGAUCGCAUACU	131	67.4	101	86.1	18.3
CCCAGUCAUAACAAAGGAAAUAUACUCGAAGGAGCGUCAUAGUAGGCAGGUAGGUCGCGAGACAUGAGGAUCACCCAUGUAGAGA [swwvmullin]	21.5	72	57.8	47.5	75.1
AGGACGGUCGGAAGGAGCGGUACAUGAGGAUCACCCAUGUACUUAUGGGCAUCCGUAGAGUGCCAGGUAGGUCGCCGAUUGCGGG [XArg-B11]	17.2	29	34.1	33	21.8
GACAGACGAGGAAGGAGCGACAUGAGGAUCACCCAUGUUGCGGGUUUAAGGUGAACUAAGUGUCAGGUAGGUCGCCUCGCUUUUA [Diatbeat]	35.7	56.5	36.3	41.2	49.3
ACGCCCAGGUAGGCUUAAUGGGAUAUGGAAGGAGCGCUGAUGCAAGCAGGUAGGUCGCCAACGGACAUGAGGAUCACCCAUGUAC [Same State - Arginine A (Freestyle 3)]	15.3	22.3	19.5	20.9	23.8
CUACAUUUGUAGAAACCGGUCAACAUUAUUCGAGGACCGGUACGGCCGCCACUCGUAUCAUUUGAUACAUGAGGAUCACCCAUGU [Tryptophan A 8]	21.1	26.1			26.6
ACAUGAGGACCGGAUACCAGCCACACAACAUGAGGAUCACCCAUGUCCCAUGUAUGAGGAGGCCCUUGGCAGCCGACAUACAUGA [Exclusion - Theophylline B #1]	48.2	157	78.1	77.3	398
UGUAUGUGAUCUGAUACCAGUCCAACUGGUAAAGCAUGAGGAUCACCCAUGUAAAAUUGGGACCCUUGGCAGCAGAUCGCAUACU	146	190	138	166	316
UACAUGAGGAUCACCCAUGUAUGAAUAGAUACCAGAUAAAAUAAGGUCCCUUGGCAGCUAGUGAAUAAAGGGUGGGUAAAAUAAU [Exclusion Theophyline A GF 1]	11.3	12.3	9.24		
AGCCUAUUACAUGAGGAUCACCCAUGUGAUACCAGUCAGGAAACUGACCCUUGGCAGCGCAUGAGGAUCACCCAUGCGCGAGGCA [Omei Theo A Exc A v4]	10.1	12.9	10.6		
GGAUAGGACACGGCCGCCACUAGCUAGGAUACUAGCAACAUUUCCUCACUUGAGGAACACCCAAGUAGGACCGGGUGUCCUAUCG	122	724	740	517	1360
GUUAUGGACCUGGAUACCAGCUGGUACAAGGGCGGUCUACAUGAGGAUCACCCAUGUGUCAGCCCUUGGCAGCCAGCAACCCACU [Cele]	10.6	16.7	9.57		
AUUAACAUGAGGAUCACCCAUGUUCUCACACGAGGACCGGUACGGCCGCCACUCGGUUUGGUAUUGGUCACUAGGCAGUUAGGAG [theeternabot_sameState_MS2_Trp_A_12]	15.2	26.7			17
UGUAUGGACUGAAGGAGCGGUAGAUAGCUUGAGGAUCACCCAAGUAAUAAGGCGAAAGCCUACCAGGUAGGUCGCAGUCCAUACU	28	30.8	27.9	25.4	26.9
GGACUAACCAGAAGGAGCGACGCGCAGAAACUGCAAAAUCCUCCACACGAGGAUCACCCGUGUCAGGUAGGUCGCUGGUUAGUCG [ArgXB 16 #CuTurnoff #MS2Left #StaticStem #Blueprint]	30.2	36.1	31.3	26.6	27.2
AGCGACAUGCAUGAUACCAGCUACAUGAGGAUCACCCAUGUACGUCAGUAAUGACUGUGUAGCCCUUGGCAGCAUAAAGCAUGUC [Exclusion - Theophylline B (Freestyle 17)]	22.8	44.5	26.5		
ACAUGAGGAUCACCCAUGUCACGGCACGAUACCAGCUGAUCCGGUGGCCCUUGGCAGCGUGACGUUUGGUCCCGCGGAUCACACG [semullin]	40	101	66.9		

Sequence	apparent KD of MS2 coat protein (input ligand: arginine 13.2 mM) [nM]	apparent KD of MS2 coat protein [1] [nM]	apparent KD of MS2 coat protein [2] [nM]	apparent KD of MS2 coat protein (input ligand: none) [nM]	apparent KD of MS2 coat protein [3] [nM]
CCUGACAUGAGGAUCACCCAUGUGUGAGCACGAGGACCGGUACGGCCGCCACUCGCGUUGCCGGCCGGACUAUCUGGCGAAGUCA [theeternabot_sameState_MS2_Trp_A_10]	28.3	39.6			41.4
ACAUGAGGAUCACCCAUGUAAUAGCGAGAAGGAGCGCGUAAGGACGCAGGUAGGUCGCUCGUGGUCCGGCCGCAAGGCCGGACCA [#1 Same State - Arginine A Attempt #10 (HarryS)]	11.1	18.6	13.2	9.24	12
GGAUUCAACUCGGCCGCCACUGGUGAUCCUAAUGUACAUGAGGAUCACCCAUGUACAUGAGAAUAUAGGACCGGGAGAUAAGUUA [Tryptophan B V3 (+3U)]	23.2	33.5			32.2
UUGCUCUCUUCGGCCGCCACUACACGCGAGUUGACGACUGGCGGACAUGAGGAUCACCCAUGUCAUAGGACCGGGAAUCACGCUG [theeternabot_sameState_MS2_Trp_B_11]	11.5	15.9			15.2
GAUAUUUGAAAACAAAUAUCAGUGGGUGAACGAGGACCGGUACGGCCGCCACUCGGACAUGAGGAUCACCCAUGUCCAUGUGAAA [AstrosExyTryA#7]	13.9	18.2			17.6
AUUCAUGGAAACAUGACAUACAUAACCGGUCGAGGACCGGUACGGCCGCCACUCGUUUGGAGGCACAUGAGGAUCACCCAUGUUA [SS Tryp A #9]	21.7	35.9			28.2
AUACAUGAGGAUCACCCAUGUAAAGUUGAAGGAGCGACCAGAGGGUCAGGUAGGUCGCAACACAUGAGGAUCACCCAUGUAUCGA [DOUBLE!!! :-D #6]	53.3	78.4	71.4	83.6	79.4
UAAUAGGUCCAGAACGUACCAGGUGAUCAACGAGGACCGGUACGGCCGCCACUCGAAACAUGAGGAUCACCCAUGUAACUGGACC [|T'-M'-Trp-Ms2|_Design 2_ML]	173	95.3	61.4	72.9	518
GGGUGGUAGGCGGCCGCCACUGAUUUUUAUUUAUAGAUGACAUGAGGAUCACCCAUGUUUAUGUGCAGGACCGGGCCUGUUGUGG [aaaR]	12.2	15.2	13.9	16.1	15.6
UGCGGACAUGAGGAUCACCCAUGUGCGGAUACCAGCAGCCGGCUCUGCCCUUGGCAGCCGCUACCCUUGCACGUUUAACGAUCCA [theeternabot_sameState_MS2_Theo_A_27]	31.9	60.2	50.1		
UAACAUGAGGAUCACCCAUGUUUAGAUGAACGAGGACCGGUACGGCCGCCACUCGAUAAGUGGCAAGAACGAGGGAUUGUAUGCU [Same State Trp A GF3]	12.7	22.6	13.2	13.8	11.7
AGCCACUCGAGUGAUCCUCACGAGUGGCUACGAGGACCGGUACGGCCGCCACUCGAAUUAACAUGAGGAUCACCCAUGUAAUCUA [Brourdmod07]	22.5	227			196
GGGCGCUAUCCCGCGAGGGAUAGCGUUCAACGAGGACCGGUACGGCCGCCACUCGAACGAGUGGUGACAUGAGGAUCACCCAUGU [Iaa]	39.9	66.4	56.4	42.5	53.3
UCAUAAGUACCGGUCCUCAGAUCCUCAUGACGAGGACCGGUACGGCCGCCACUCGAAACAUGAGGAUCACCCAUGUAAUAACAUU [Brourdmod23]	19.5	28.4			26.1
GCCGCUGCCGCGAUAUGUAUGGGUGUGUAACGAGGACCGGUACGGCCGCCACUCGCGAUCGCACAUGAGGAUCACCCAUGUGUCC [Exclusion Tryp A GF18]	26.5	72.4			68
UGUACUAUGUGAAGGAGCGAGAAGGAGCGAACAUGAGGAUCACCCAUGUACAGGUAGGUCGCUCAGGUAGGUCGCACAUAGUACU [ArgBS - Double aptamer]	13.2	14.6	11.7	9.94	14.4
GUUAGAUCAAAAGAUUUAACAGUGGGUGAACGAGGACCGGUACGGCCGCCACUCGGACAUGAGGAUCACCCAUGUCCAUGUGAAA [AstrosExyTryA#16]	19.4	15.2	43.5	17.2	15.9
UAUUCUGACACAGAUACCAGUCAAUUCCGUGGCAAGUGCUACAUGAGGAUCACCCAUGUCGACCCUUGGCAGCUGAAGAGAUACA [theeternabot_exclusion_MS2_Theo_B_50]	10.9	14.7	11.2		
ACGACAUGAGGAUCACCCAUGUAAGGUGAUACCAGACGAAGUAAUGUCCCUUGGCAGCACAAGCAUAGUUGCGAUUAUUGUACGA [JR_SSTheophyA_Sub006]	124	574	442		
